Source: IntAct's records for PubMed 17396155

B1: General receptor for phosphoinositides 1-associated scaffold protein (Rattus norvegicus (Rat)), Q8R4T5 (parent)
chain: MTLRRLRKLQQKEEATAAPDLAGRAPDSEAARAAPTPSGPPAAAAPPGAPGDELYAALEDYHPAELYRALAVSGGTLPRRKGSGFRWKNFTQSPEQQRKVLTLEKGDNQTFGFEIQTYGLHHREEQRVEMVTFVCRVHESSPAQLAGLTPGDTIASVNGLNVEGIRHREIVDIIKASGNVLRLETLYGTSIRKAELEARLQYLKQTLYEKWGEYRSLMVQEQRLVHGLVVKDPSIYDTLESVRSCLYGAGLLPGSLPFGPLLAAPGGARGGSRRAKGDTDDAVYHTCFFGGAEPQALPPPPPPARAPGPGSAETPASVLCPAPRATLSRSASVRCAGPGGGGGGGAPGALWTEAREQALCGAGLRKTKYRSFRRRLLKFIPGLNRSLEEEESQL

Variants of: B1
Conditions: with grm5_rat Grm5, P31424
Sequence of grm5_rat Grm5, P31424 (P31424 whole entry, looked up): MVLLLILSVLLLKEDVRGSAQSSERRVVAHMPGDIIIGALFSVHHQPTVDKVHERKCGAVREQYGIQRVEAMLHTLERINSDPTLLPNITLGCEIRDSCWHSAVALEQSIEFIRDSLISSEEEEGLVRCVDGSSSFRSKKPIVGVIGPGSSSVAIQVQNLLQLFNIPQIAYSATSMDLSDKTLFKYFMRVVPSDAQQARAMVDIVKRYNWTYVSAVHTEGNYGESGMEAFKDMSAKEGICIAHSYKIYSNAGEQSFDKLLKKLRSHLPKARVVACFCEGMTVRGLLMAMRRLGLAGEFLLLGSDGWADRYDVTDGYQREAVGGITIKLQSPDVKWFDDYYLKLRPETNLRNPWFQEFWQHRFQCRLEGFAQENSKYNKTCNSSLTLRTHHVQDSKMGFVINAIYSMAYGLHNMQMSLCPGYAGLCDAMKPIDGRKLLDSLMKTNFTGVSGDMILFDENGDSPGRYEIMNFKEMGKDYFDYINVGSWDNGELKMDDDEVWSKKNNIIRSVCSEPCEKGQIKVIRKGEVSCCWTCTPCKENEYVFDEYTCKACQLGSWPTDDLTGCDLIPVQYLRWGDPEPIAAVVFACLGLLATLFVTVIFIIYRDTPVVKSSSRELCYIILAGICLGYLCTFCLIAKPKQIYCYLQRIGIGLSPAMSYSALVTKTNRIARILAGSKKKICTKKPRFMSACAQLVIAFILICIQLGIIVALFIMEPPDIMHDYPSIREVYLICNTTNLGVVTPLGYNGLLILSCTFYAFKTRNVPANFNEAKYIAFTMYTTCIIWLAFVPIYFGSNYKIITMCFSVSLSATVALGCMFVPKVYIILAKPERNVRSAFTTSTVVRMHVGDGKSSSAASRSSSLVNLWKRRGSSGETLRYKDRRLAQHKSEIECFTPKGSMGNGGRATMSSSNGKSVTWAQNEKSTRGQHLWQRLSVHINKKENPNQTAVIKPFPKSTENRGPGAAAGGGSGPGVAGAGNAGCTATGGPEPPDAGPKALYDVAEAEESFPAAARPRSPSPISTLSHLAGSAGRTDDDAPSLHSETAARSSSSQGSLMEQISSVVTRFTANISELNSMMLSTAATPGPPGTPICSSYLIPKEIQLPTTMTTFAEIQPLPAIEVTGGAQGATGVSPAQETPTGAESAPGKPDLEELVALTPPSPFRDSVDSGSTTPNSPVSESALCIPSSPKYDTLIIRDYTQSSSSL

| effect of a mutation on the interaction | Variant |
| --- | --- |
| decreasing interaction | E114K |
